Reference: paper PMC5737217 (Nucleic Acids Research, 2017)

B1: tSTATcc (truncated STAT1α, amino acids 132–713, with A656C and N658C) (domain or fragment, UniProt P42224 132-713, looked up)
chain: STVMLDKQKELDSKVRNVKDKVMCIEHEIKSLEDLQDEYDFKCKTLQNREHETNGVAKSDQKQEQLLLKKMYLMLDNKRKEVVHKIIELLNVTELTQNALINDELVEWKRRQQSACIGGPPNACLDQLQNWFTIVAESLQQVRQQLKKLEELEQKYTYEHDPITKNKQVLWDRTFSLFQQLIQSSFVVERQPCMPTHPQRPLVLKTGVQFTVKLRLLVKLQELNYNLKVKVLFDKDVNERNTVKGFRKFNILGTHTKVMNMEESTNGSLAAEFRHLQLKEQKNAGTRTNEGPLIVTEELHSLSFETQLCQPGLVIDLETTSLPVVVISNVSQLPSGWASILWYNMLVAEPRNLSFFLTPPCARWAQLSEVLSWQFSSVTKRGLNVDQLNMLGEKLLGPNASPDGLIPWTRFCKENINDKNFPFWLWIESILELIKKHLLPLWNDGCIMGFISKERERALLKDQQPGTFLLRFSESSREGAITFTWVERSQNGGEPDFHAVEPYTKKELSAVTFPDIIRNYKVMACECIPENPLKYLYPNIDKDHAFGKYYSRPKEAPEPMELDGPKGTGYIKTELISVSEVH
B2: 1C_GAS (dsDNA)
DNA 1: GCTGCCACTAGAGTTTTTTCGGGAAAAGATCATCAAGAGCACACGGG
DNA 2: CCCGTGTGCTCTTGATGATCTTTTCCCGAAAAAACTCTAGTGGCAGC
B3: 1T_GAS (dsDNA)
DNA 1: GCTGCCACTAGAGTTTTTCTAGGAAAAGATCATCAAGAGCACACGGG
DNA 2: CCCGTGTGCTCTTGATGATCTTTTCCTAGAAAAACTCTAGTGGCAGC
B4: 2T_GAS (dsDNA)
DNA 1: GCTGCCACTAGAGTTTTCCTAGGAAAAGATCATCAAGAGCACACGGG
DNA 2: CCCGTGTGCTCTTGATGATCTTTTCCTAGGAAAACTCTAGTGGCAGC
B5: 3C_GAS (dsDNA)
DNA 1: GCTGCCACTAGAGTTTTCCCGGGAAAAGATCATCAAGAGCACACGGG
DNA 2: CCCGTGTGCTCTTGATGATCTTTTCCCGGGAAAACTCTAGTGGCAGC
B6: 0T_GAS (dsDNA)
DNA 1: GCTGCCACTAGAGTTTTTTTAGGAAAAGATCATCAAGAGCACACGGG
DNA 2: CCCGTGTGCTCTTGATGATCTTTTCCTAAAAAAACTCTAGTGGCAGC

How the values were obtained:
non-reducing SDS-PAGE = target: the molecule itself; experiment: non-reducing SDS-PAGE
[1] = target: tSTATcc (truncated STAT1, C-C dimer) (UniProt P42224 132-713, A656C;N658C); experiment: Spec-seq
tSTATcc-N460H = tSTATcc-N460H (UniProt P42224 132-713, N460H;A656C;N658C); experiment: Spec-seq
Sequence of tSTATcc-N460H (P42224 132-713 N460H/A656C/N658C): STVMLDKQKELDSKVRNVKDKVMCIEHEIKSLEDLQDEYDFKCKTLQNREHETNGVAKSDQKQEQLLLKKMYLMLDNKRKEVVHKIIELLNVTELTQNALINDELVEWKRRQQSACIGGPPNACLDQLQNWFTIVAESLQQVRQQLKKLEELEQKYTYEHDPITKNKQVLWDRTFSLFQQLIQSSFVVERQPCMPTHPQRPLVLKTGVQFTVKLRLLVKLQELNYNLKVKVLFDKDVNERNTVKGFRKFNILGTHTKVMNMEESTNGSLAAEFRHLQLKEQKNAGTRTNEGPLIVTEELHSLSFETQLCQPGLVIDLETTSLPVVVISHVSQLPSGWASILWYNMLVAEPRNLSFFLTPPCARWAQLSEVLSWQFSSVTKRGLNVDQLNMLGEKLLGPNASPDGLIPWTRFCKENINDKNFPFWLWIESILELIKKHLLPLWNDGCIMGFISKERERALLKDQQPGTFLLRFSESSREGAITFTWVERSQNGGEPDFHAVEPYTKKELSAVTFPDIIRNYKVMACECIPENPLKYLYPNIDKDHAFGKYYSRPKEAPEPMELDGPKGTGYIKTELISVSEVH

| Binder | stoichiometry N (non-reducing SDS-PAGE) | binding signal [1] | binding signal (tSTATcc-N460H) |
| --- | --- | --- | --- |
| B1 | 2 |  |  |
| B2 |  | 1.6 kT (ddG vs 2C_GAS) | 1.8 kT (ddG vs 2C_GAS) |
| B3 |  | 1.7 kT (ddG vs 2C_GAS) | 1.7 kT (ddG vs 2C_GAS) |
| B4 |  | 1.9 kT (ddG vs 2C_GAS) | 1.7 kT (ddG vs 2C_GAS) |
| B5 |  | 1.6 kT (ddG vs 2C_GAS) | 1.6 kT (ddG vs 2C_GAS) |
| B6 |  | 1.5 kT (ddG vs 2C_GAS) | 1.8 kT (ddG vs 2C_GAS) |
